Test results: PMC3368898

Tests used:
Assay in all cases: […]; 10 mM Tris pH 7.4, 150 mM NaCl, 1 mM EDTA
[1] = molecular target: Col–PfC fragment, endogenous proteolytic fragment of rEPclA with only the Col and PfC domains (Escherichia coli O157:H7 strain RIMD 0509952 (Sakai))
[2] = molecular target: PfC domain of EPclA (residues 363-426) after removal of thioredoxin by thrombin
[3] = molecular target: PfN–PCoil fragment of EPclA (residues 1-250)
[4] = molecular target: Trx–PfC, PfC domain of EPclA (residues 363-426) fused to thioredoxin

Substance: Col–PfC fragment, endogenous proteolytic fragment of rEPclA with only the Col and PfC domains (domain or fragment)
- stoichiometry N [1]: 3

Substance: PfC domain of EPclA (residues 363-426) after removal of thioredoxin by thrombin (domain or fragment)
- stoichiometry N [2]: 3

Substance: PfN–PCoil fragment of EPclA (residues 1-250) (domain or fragment)
- stoichiometry N [3]: 3

Substance: Trx–PfC, PfC domain of EPclA (residues 363-426) fused to thioredoxin (domain or fragment)
- stoichiometry N [4]: 3
